Reference: EP4628506A1, “PREPARATION METHOD FOR AND USE OF CD70-SPECIFIC INTEGRATED DIAGNOSIS AND TREATMENT MOLECULAR IMAGING PROBE” (Renji Hospital, Shanghai Jiao Tong University School of …, priority 2022, dated 2024)

T1: extracellular domain of human recombinant CD70 (human, UniProt P32970 39-193)
T1 construct: extracellular domain; Immobilised on Biacore chips; also called human CD70; CD27 ligand
T1 sequence (looked up): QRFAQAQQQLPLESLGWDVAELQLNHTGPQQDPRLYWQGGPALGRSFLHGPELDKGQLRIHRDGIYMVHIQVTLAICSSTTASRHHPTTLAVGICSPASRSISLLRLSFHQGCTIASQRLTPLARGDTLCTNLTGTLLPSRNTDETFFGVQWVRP


What was measured:
[1] = molecular target: T1, extracellular domain of human …; assay: SPR (Biacore), CD70 extracellular domain immobilised, nanobody as mobile phase
RCC models (No. 62 PDX) = test system: RCC models (No. 62 PDX); set-up: species or system mice; conditions: mouse, in vivo
Text: Renal cell carcinoma (RCC) patient-derived xenograft (PDX) models, No. 62 PDX, positive in expression of CD70 were identified by immunohistochemical (IHC) staining using an antihuman CD70 monoclonal antibody (E3Q1A, 69209, Cell Signaling Technology) as a primary antibody, as shown in FIG. 3. RCC PDX models were established by subcutaneously inoculating 2mm×2mm×2mm No. 62 PDX tissue chunks into right shoulder of NCG (NOD-Prkdcem26Cd52Il2rgem26Cd22/Nju) mice.
PET/CT images of small animals involved in these tests were all captured using an IRIS small-animal PET/CT scanner (Inviscan Imaging Systems). Each murine model (three in each group) was injected with 3.7-7.4 MBq of [^68Ga]Ga-NOTA-B3 or [^68Ga]Ga-NOTA-B6 via the tail vein. One hour after the injection, the mice were anesthetized with isoflurane mixed in oxygen (at a concentration of 2%). After being deeply anesthetized, the mice were placed supine on the PET/CT scanning bed, and PET and CT images were captured sequentially. […]
The same operations as in step 2) above were performed. […] ROI uptake in the tumor and major tissues and organs (heart, liver, lungs, kidneys, muscles, spleen and bones) was analyzed and plotted against time. […]

[2] = molecular target: T1, extracellular domain of human …; assay: SPR (Biacore), CD70 extracellular domain immobilised, fusion protein as mobile phase
[3] = molecular target: T2, recombinant human serum albumin (human, UniProt P02768 25-609); assay: SPR (Biacore), recombinant human serum albumin immobilised, fusion protein as mobile phase
T2 construct: Immobilised on Biacore chips
T2 sequence (P02768 25-609 limits assumed): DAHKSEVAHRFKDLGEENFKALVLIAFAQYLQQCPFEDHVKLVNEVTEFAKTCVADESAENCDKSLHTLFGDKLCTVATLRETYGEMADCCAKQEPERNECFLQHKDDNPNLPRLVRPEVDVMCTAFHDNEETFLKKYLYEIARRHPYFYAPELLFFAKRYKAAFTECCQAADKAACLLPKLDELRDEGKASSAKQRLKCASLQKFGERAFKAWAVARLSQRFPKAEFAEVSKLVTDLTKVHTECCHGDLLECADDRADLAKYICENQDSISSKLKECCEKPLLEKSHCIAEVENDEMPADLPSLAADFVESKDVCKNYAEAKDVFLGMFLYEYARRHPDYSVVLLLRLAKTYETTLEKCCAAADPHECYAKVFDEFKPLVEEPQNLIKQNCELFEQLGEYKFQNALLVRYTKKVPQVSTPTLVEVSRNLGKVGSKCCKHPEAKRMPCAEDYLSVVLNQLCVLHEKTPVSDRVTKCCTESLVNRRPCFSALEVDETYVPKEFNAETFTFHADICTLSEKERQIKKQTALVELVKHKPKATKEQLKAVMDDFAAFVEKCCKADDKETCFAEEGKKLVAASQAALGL

[4] = molecular target: T3, recombinant murine serum albumin (murine, UniProt P07724 25-608); assay: SPR (Biacore), recombinant murine serum albumin immobilised, fusion protein as mobile phase
T3 construct: Immobilised on Biacore chips

Molecule | Kd [1] [pM] | Kd [2] [pM] | Kd [3] [pM] | Kd [4] [pM] | uptake in the major excretory (kidneys) and metabolic (liver) organs (RCC models (No. 62 PDX))
CD70-specific nanobody B3 (VHH, Monovalent nanobody expressed in E. coli from pET-30a(+); any vector-derived tag is not described) VHH: QVQLQESGGGSVQAGGSLRLSCAASGIIVNDGCMAWFRQVPGKEREGVAGIVIGEYGGGTTYYADSVKGRFTISRDRAKNTLYLQMNSLKPEDTAMYYCAADQWASGGCTSIATFSDEFDYWGQGTQVTVSS | 5690 |  |  |  | 
[^68Ga]Ga-NOTA-B6: human CD70-specific 68Ga-labeled monovalent nanobody probe, B6 modified with p-SCN-Bn-NOTA (conjugate) VHH: QVQLQESGGGSVQAGGSLRLSCVASDLIVNDGCMAWFRQVPGKEHEGVARIAIPTTPGSTLYADSVKGRFTISRDGAKNTLYLQMNSLKPEDTAVYYCAADQWASRGCTAIATIPAEFDYWGQGTQVTVSSGGGGSGGGGSLLQSHHHHHH |  |  |  |  | high nonspecific uptake
CD70-specific nanobody B6 (VHH, Monovalent nanobody expressed in E. coli from pET-30a(+); any vector-derived tag is not described) VHH: QVQLQESGGGSVQAGGSLRLSCVASDLIVNDGCMAWFRQVPGKEHEGVARIAIPTTPGSTLYADSVKGRFTISRDGAKNTLYLQMNSLKPEDTAVYYCAADQWASRGCTAIATIPAEFDYWGQGTQVTVSS | 3730 |  |  |  | 

Second part, led by results:

Kd [1] [pM] | Kd [2] [pM] | Kd [3] [pM] | Kd [4] [pM] | Molecule | uptake in the major excretory (kidneys) and metabolic (liver) organs (RCC models (No. 62 PDX))
 | 110 | 74.2 | 380 | CD70-specific nanobody fusion protein ABDB3 (other, 5) HHHHHHQVQLQESGGGSVQAGGSLRLSCAASGIIVNDGCMAWFRQVPGKEREGVAGIVIGEYGGGTTYYADSVKGRFTISRDRAKNTLYLQMNSLKPEDTAMYYCAADQWASGGCTSIATFSDEFDYWGQGTQVTVSSGGGGSGGGGSGGGGSLAEAKVLANRELDKYGVSDFYKRLINKAKTVEGVEALKLHILAALPGGGGSLLQS | 
 | 135 | 88.5 | 454 | CD70-specific nanobody fusion protein ABDB6 (other, 7) HHHHHHQVQLQESGGGSVQAGGSLRLSCVASDLIVNDGCMAWFRQVPGKEHEGVARIAIPTTPGSTLYADSVKGRFTISRDGAKNTLYLQMNSLKPEDTAVYYCAADQWASRGCTAIATIPAEFDYWGQGTQVTVSSGGGGSGGGGSGGGGSLAEAKVLANRELDKYGVSDFYKRLINKAKTVEGVEALKLHILAALPGGGGSLLQS | 
